Laboratory results reported in US20200283478.

How the values were obtained:
Compound 112 = test system: T1, Compound 112
T1 sequence: WNLVRIGLTR

Compound 26 = test system: T2, Compound 26
T2 sequence: SGCFIPWNLQRIGLLC

Compound 29 = test system: T3, Compound 29
T3 sequence: SGCFIPWNLQRIGLLC

Pep2-8 = test system: T4, Pep2-8
T4 sequence: TVFTSWEEYLDWV

Q: How did the “FXIa cleavage of the P′ helix (immunoblot)” value (“FXIa cleavage of the P′ helix” for short) (Compound 112) turn out when PCSK9-R167A:R215A:R218A was run?
A: The value was “able to increase the FXIa-mediated cleavage of the P′ helix at R160-I161 in a similar fashion as shown for Fab33”.

Q: And the “FXIa cleavage of the P′ helix” value (Compound 26)?
A: The value was “accelerated the cleavage reaction, leading to almost complete cleavage of the P′ helix”.

Q: What about the “FXIa cleavage of the P′ helix” value (Compound 29) of the same substance?
A: The value was “accelerated the cleavage reaction, leading to almost complete cleavage of the P′ helix”.

Q: What about the “FXIa cleavage of the P′ helix” value (Pep2-8) of the same substance?
A: The value was “largely prevented cleavage of the P′ helix by FXIa”.
